Test results taken from patent US20240158497A1 (published 2024).

T1: Macaca fascicularis GP130 extracellular domain expressed with a C-terminal myc-myc-hexahistidine tag (Macaca fascicularis, UniProt P40189 23-619 (human entry))
T1 construct: Monomeric reagent; also called mfGP130-mmH; mfGP130-MMH
T1 chain: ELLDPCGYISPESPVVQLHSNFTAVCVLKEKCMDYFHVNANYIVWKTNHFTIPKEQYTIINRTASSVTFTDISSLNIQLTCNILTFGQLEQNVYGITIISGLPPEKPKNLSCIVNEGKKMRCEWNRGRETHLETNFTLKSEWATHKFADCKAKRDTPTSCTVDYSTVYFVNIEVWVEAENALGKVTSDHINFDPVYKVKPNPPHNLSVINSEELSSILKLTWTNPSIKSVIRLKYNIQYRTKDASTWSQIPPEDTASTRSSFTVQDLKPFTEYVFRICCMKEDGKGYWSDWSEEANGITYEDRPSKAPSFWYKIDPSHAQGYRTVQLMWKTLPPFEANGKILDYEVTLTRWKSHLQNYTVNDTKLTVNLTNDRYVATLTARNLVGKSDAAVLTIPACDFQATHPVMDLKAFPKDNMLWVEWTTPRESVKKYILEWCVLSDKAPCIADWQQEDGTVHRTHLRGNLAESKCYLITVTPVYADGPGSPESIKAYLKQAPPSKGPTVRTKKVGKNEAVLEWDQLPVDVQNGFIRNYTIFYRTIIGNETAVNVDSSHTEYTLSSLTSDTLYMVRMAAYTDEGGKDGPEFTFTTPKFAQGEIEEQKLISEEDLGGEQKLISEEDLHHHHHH

T2: Macaca Fascicularis GP130 extracellular domain expressed with a C-terminal myc-myc-hexahistidine tag (Macaca fascicularis, UniProt P40189 23-619 (human entry))
T2 construct: also called mfGP130-MMH; mfGP130-mmH
T2 chain: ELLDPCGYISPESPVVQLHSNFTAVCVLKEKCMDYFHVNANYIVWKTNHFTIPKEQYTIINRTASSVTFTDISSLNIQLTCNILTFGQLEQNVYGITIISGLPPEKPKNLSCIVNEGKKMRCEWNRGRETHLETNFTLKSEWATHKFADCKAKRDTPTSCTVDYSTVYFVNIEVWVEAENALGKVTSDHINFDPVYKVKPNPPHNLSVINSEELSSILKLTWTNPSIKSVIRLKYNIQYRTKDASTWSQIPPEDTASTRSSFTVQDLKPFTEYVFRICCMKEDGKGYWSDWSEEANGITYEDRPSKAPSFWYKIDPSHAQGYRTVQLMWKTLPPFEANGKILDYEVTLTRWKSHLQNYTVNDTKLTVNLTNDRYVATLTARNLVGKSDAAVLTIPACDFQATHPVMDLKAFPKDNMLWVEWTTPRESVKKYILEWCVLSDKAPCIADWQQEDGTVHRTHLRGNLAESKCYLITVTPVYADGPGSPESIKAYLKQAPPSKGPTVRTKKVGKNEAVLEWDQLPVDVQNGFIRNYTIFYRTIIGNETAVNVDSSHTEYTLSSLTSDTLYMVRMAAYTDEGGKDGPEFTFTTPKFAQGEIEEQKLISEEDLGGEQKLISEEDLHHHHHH


What was measured:
[1] = target: T1, Macaca fascicularis GP130 extracellular …; test: SPR (Biacore 4000), mAb captured on anti-human Fc, 25 C
Method: (§1) Equilibrium dissociation constant (KD) for different GP130 reagents binding to purified anti-GP130 monoclonal antibodies were determined using a real-time surface plasmon resonance based Biacore 4000 biosensor. All binding studies were performed in 10 mM HEPES, 150 mM NaCl, 3 mM EDTA, and 0.05% v/v Surfactant Tween-20, pH 7.4 (HBS-ET) running buffer at 25° C. and 37° C. The Biacore sensor surface was first derivatized by amine coupling with a monoclonal mouse anti-human Fc antibody (GE, #BR-1008-39) to capture anti-GP130 monoclonal antibodies. […] Reagents tagged with “mmH” are monomeric, whereas reagents tagged with “mFc” are dimeric. Thus, for example, “hGP130-mmH” is also referred to as “monomeric human GP130,” and “hGP130-mFc” is also referred to as “dimeric human GP130.”
(§2) The association rate (k a) and dissociation rate (kd) were determined by fitting the real-time binding sensorgrams to a 1:1 binding model with mass transport limitation using Scrubber 2.0c curve-fitting software. Binding dissociation equilibrium constant (KD) and dissociative half-life (t ½) were calculated from the kinetic rates as: […]

[2] = target: T1, Macaca fascicularis GP130 extracellular …; test: SPR (Biacore 4000), mAb captured on anti-human Fc, 37 C
Method: as §1, §2

[3] = target: T3, human GP130 extracellular domain expressed with a C-terminal myc-myc-hexahistidine tag (human, UniProt P40189 23-619); test: as above
T3 construct: Monomeric reagent; also called hGP130-mmH; hGP130-MMH
Method: as §1, §2

[4] = target: T4, human GP130 extracellular domain expressed with a C-terminal myc-myc-hexahistidine tag (human, UniProt P40189 23-619); test: SPR, bsAb captured by anti-hFc, 25C
T4 construct: also called hGP130-MMH; hGP130-mmH
Method: (§3) Equilibrium dissociation constants (KD values) for LEPR and GP130 binding to purified anti-LEPR/GP130 bispecific antibodies were determined using a real-time surface plasmon resonance biosensor using a Biacore 4000 instrument. All binding studies were performed in 10 mM HEPES, 150 mM NaCl, 3 mM EDTA, and 0.05% v/v Surfactant Tween-20, pH 7.4 (HBS-ET) running buffer at 25° C. and 37° C. The Biacore sensor surface was first derivatized by amine coupling with a monoclonal mouse anti-human Fc antibody (GE, #BR-1008-39) to capture anti-LEPR/GP130 bispecific antibodies. […] Different concentrations of LEPR or GP130 reagents were first prepared in HBS-ET running buffer (100 nM-3.7 nM; 3-fold serial dilution) and were injected over anti-human Fc captured anti-LEPR/GP130 bispecific antibody surface for 4 minutes at a flow rate of 30 μL/minute, while the dissociation of bispecific antibody bound LEPR or GP130 reagent was monitored for 10 minutes in HBS-ET running buffer. Kinetic association (kₐ) and dissociation (kd) rate constants were determined by fitting the real-time binding sensorgrams to a 1:1 binding model with mass transport limitation using Scrubber 2.0c curve-fitting software. Binding dissociation equilibrium constants (KD) and dissociative half-lives (t ½) were calculated from the kinetic rate constants as: […]

[5] = target: T2, Macaca Fascicularis GP130 extracellular …; test: SPR, bsAb captured by anti-hFc, 25C
Method: as §3

[6] = target: T4, human GP130 extracellular domain …; test: SPR, bsAb captured by anti-hFc, 37C
Method: as §3

[7] = target: T2, Macaca Fascicularis GP130 extracellular …; test: SPR, bsAb captured by anti-hFc, 37C
Method: as §3

Binder	100 nM Ag Bound [1]	Kd [1]	koff [1]	kon [1]	t½ [1]	100 nM Ag Bound [2]	Kd [2]	koff [2]	kon [2]	t½ [2]	100 nM Ag Bound [3]	Kd [3]	koff [3]	kon [3]	t½ [3]	100 nM hGP130-MMH Bound (RU) [4]	Kd [4]	koff [4]	kon [4]	t½ [4]	further results
MAb16614 (antibody, V domains shown) VH: QVQLVESGGGVVQPGGSLRLSCAASGFTFSTYDIHWVRQAPGKGLEWVAVISFDGSNRNYGDSVKGRFTISRDNSDNTLFLEMNNLRFEDTAVYYCAKEGYGVDFQHWGQGTLVTVSS VL: not shown	16 RU	139 nM	0.0104 s⁻¹	74400 M⁻¹ s⁻¹	66 s	8 RU	72.2 nM	0.0267 s⁻¹	370000 M⁻¹ s⁻¹	24 s	10 RU	121 nM	0.03 s⁻¹	247000 M⁻¹ s⁻¹	24 s						
MAb16618 (antibody, V domains shown) VH: QVQLQESGPGLVKPSETLSLTCTVSGGSISNYYWTWIRQPPGKGLEWIGHISNSGTTNYNPSLKSRVTISVDTSKNQFSLKLTSVTAADTAVYYCARLPLGIAAVDTDYYYYFGMDVWGQGTTVTVSS VL: not shown	40 RU	166 nM	0.0621 s⁻¹	374000 M⁻¹ s⁻¹	12 s	26 RU	90.3 nM	0.12 s⁻¹	1.33e+06 M⁻¹ s⁻¹	6 s	36 RU	103 nM	0.112 s⁻¹	1.08e+06 M⁻¹ s⁻¹	6 s						

More lines, main results first:

100 nM Ag Bound [1]	Kd [1]	koff [1]	kon [1]	t½ [1]	100 nM Ag Bound [2]	Kd [2]	koff [2]	kon [2]	t½ [2]	100 nM Ag Bound [3]	Kd [3]	koff [3]	kon [3]	t½ [3]	100 nM hGP130-MMH Bound (RU) [4]	Kd [4]	koff [4]	kon [4]	t½ [4]	Binder	further results
															16 RU	196 nM	0.0218 s⁻¹	112000 M⁻¹ s⁻¹	30 s	bsAb19757D (bispecific antibody, V domains shown, LEPR x GP130 bispecific with common light chain) VH 1: EVQLVESGGGLVQPGGSLRLSCVASGFTFNKYDMHWVRQTTGKGLEWVSGIDTDGDTYYPGSVKGRFTISRENAENSLYLQMNGLRVGDTAVYYCARWPWSGFYGAFDIWGQGTMVTVSS VH 2: EVQLVESGGGVVRPGGSLRLSCTASGFTFDDYGMSWVRQAPGKGLEWVSGINWNGGRTEYADAVKGRFIISRDNAKNSLYLQMNSLRAEDTALYFCARTELRWDYWGQGTLVTVSS VL: not shown	100 nM mfGP130-MMH Bound (RU) [5]: 15 RU; Kd [5]: 188 nM; koff [5]: 0.0204 s⁻¹; kon [5]: 108000 M⁻¹ s⁻¹; t½ [5]: 36 s; 100 nM hGP130-MMH Bound (RU) [6]: 16 RU; Kd [6]: 358 nM; koff [6]: 0.0635 s⁻¹; kon [6]: 178000 M⁻¹ s⁻¹; t½ [6]: 12 s; 100 nM mfGP130-MMH Bound (RU) [7]: 14 RU; Kd [7]: 450 nM; koff [7]: 0.0598 s⁻¹; kon [7]: 133000 M⁻¹ s⁻¹; t½ [7]: 12 s
															51 RU	14.6 nM	0.00457 s⁻¹	313000 M⁻¹ s⁻¹	150 s	bsAb19758D (bispecific antibody, V domains shown, LEPR x GP130 bispecific with common light chain) VH 1: EVQLVESGGGLVQPGGSLRLSCVASGFTFNKYDMHWVRQTTGKGLEWVSGIDTDGDTYYPGSVKGRFTISRENAENSLYLQMNGLRVGDTAVYYCARWPWSGFYGAFDIWGQGTMVTVSS VH 2: EVQLVESGGGLVQSGGSLRLSCAASGFTFSRYEMNWVRQAPGKGLEWVAYISNTGTTRDYSDSVKGRFTISRDNAKNSLYLQMSSLRVEDTAVYYCVREKFSGTSDWFDPWGQGTLVTVSS VL: not shown	100 nM mfGP130-MMH Bound (RU) [5]: 46 RU; Kd [5]: 16.5 nM; koff [5]: 0.00507 s⁻¹; kon [5]: 307000 M⁻¹ s⁻¹; t½ [5]: 138 s; 100 nM hGP130-MMH Bound (RU) [6]: 50 RU; Kd [6]: 16.7 nM; koff [6]: 0.00747 s⁻¹; kon [6]: 448000 M⁻¹ s⁻¹; t½ [6]: 90 s; 100 nM mfGP130-MMH Bound (RU) [7]: 45 RU; Kd [7]: 18.2 nM; koff [7]: 0.0073 s⁻¹; kon [7]: 402000 M⁻¹ s⁻¹; t½ [7]: 96 s
